Km data for one protein are collected here from ChEMBL document CHEMBL1122856, “Study on the inhibition of adenosine deaminase” (J Med Chem, 1985).

For orientation: Km means the concentration of substrate that gives half-maximal velocity.

Substrate in the series: Cc1c([C@@H](C)O)ncn1C1O[C@H](CO)[C@@H](O)[C@H]1O

Description: Ability to inhibit the deamination of adenosine by calf intestine adenosine deaminase expressed as Km

B1: Adenosine deaminase (Bos taurus), P56658 (protein)
chain: MAQTPAFNKPKVELHVHLDGAIKPETILYYGRKRGIALPADTPEELQNIIGMDKPLSLPEFLAKFDYYMPAIAGCREAVKRIAYEFVEMKAKDGVVYVEVRYSPHLLANSKVEPIPWNQAEGDLTPDEVVSLVNQGLQEGERDFGVKVRSILCCMRHQPSWSSEVVELCKKYREQTVVAIDLAGDETIEGSSLFPGHVKAYAEAVKSGVHRTVHAGEVGSANVVKEAVDTLKTERLGHGYHTLEDATLYNRLRQENMHFEVCPWSSYLTGAWKPDTEHPVVRFKNDQVNYSLNTDDPLIFKSTLDTDYQMTKNEMGFTEEEFKRLNINAAKSSFLPEDEKKELLDLLYKAYGMPSPASAEQCL
Turning to B1, the Km amounted to 39 µM.
